Reference: patent publication US20230050440A1
Changes are numbered by the printed parent chain.

B1: Clone 25 (antibody, V domains shown)
VH: QVQLVQSGAEVKKPGASVKVSCKASGYTFTSYAISWVRQAPGQGLEWMGWISAYNGNTNYAQKLQGRVTMTTDTSTSTAYMELRSLRSDDTAVYYCARDLSSFWSGDVLGAFDIWGQGTMVTVSS
VL: DIQMTQSPSSLSASVGDRVTITCRASQSISSYLNWYQQKPGKAPKLLIYAASSLQSGVPSRFSGSGSGTDFTLTISSLQPEDFATYYCQQSVPPRTFGGGTKVEIK
B2: Clone 16D (antibody, V domains shown)
VH: QVQLVQSGAEVKKPGSSVKVSCKASGGTFSDYPISWVRQAPGQGLEWMGGIIPIVGGANYAQKFQGRVTITADESTSTAYMELSSLRSEDTAVYYCTRQSTWHKLFGTDVWGQGTTVTVSS
VL: DIQMTQSPSSVSASVGDRVTITCRASQGISSWLAWYQQKPGKAPKLLIYAASSLQSGVPSRFSGSGSGTDFTLTISSLQPEDFATYYCQQGDSLPPTFGGGTKVEIK
B3: Clone 16E (antibody, V domains shown)
VH: B2 VH with T97A, L105V, F106Y
VL: B2 VL
B4: Clone 16C (antibody, V domains shown)
VH: B2 VH with S30R, D31E, P33A, I52H, V55F, G57T, N59R, F106Y
VL: B2 VL
B5: Clone 25E (antibody, V domains shown)
VH: B1 VH with S35A, D99S, L100G
VL: B1 VL
B6: Clone 25C (antibody, V domains shown)
VH: B1 VH with A33P, S35G, A53S, D99G, L100A
VL: B1 VL
B7: Clone 25D (antibody, V domains shown)
VH: B1 VH with A33P, S35G, A53S, S101K
VL: B1 VL
B8: Clone 25A (antibody, V domains shown)
VH: B1 VH with N59K
VL: B1 VL
B9: Clone 25B (antibody, V domains shown)
VH: B1 VH with A33P, S35G, A53S
VL: B1 VL
B10: Clone 22 (antibody, V domains shown)
VH: QVQLQESGPGLVKPSETLSLTCAVSGYSISSGYYWAWIRQPPGKGLEWIGSIYHSGSTYYNPSLKSRVTISVDTSKNQFSLKLSSVTAADTAVYYCARQGYYYGSSGSVDFDLWGRGTLVTVSS
VL: DIQMTQSPSSVSASVGDRVTITCRASQGISSWLAWYQQKPGKAPKLLIYAASNLQSGVPSRFSGSGSGTDFTLTISSLQPEDFATYYCQQANSLPPWTFGGGTKVEIK
B11: Clone 18 (antibody, V domains shown)
VH: QVQLVQSGAEVKKPGASVKVSCKASGYTFTSYYMSWVRQAPGQGLEWMGIINPSGGSTSYAQKFQGRVTMTRDTSTSTVYMELSSLRSEDTAVYYCARVRYGYADGMDVWGQGTTVTVSS
VL: B2 VL with V11L, G28S, W32Y, A34N, A50G, G91V, D92Y, S93H, P96F

target: mouse TIGIT expressed on cells (mouse) (UniProt P86176); experiment: flow cytometry titration, HEK 293 cells expressing mouse TIGIT
Sequence (P86176 other isoform, or with tags, fused parts or gaps limits assumed, form in doubt): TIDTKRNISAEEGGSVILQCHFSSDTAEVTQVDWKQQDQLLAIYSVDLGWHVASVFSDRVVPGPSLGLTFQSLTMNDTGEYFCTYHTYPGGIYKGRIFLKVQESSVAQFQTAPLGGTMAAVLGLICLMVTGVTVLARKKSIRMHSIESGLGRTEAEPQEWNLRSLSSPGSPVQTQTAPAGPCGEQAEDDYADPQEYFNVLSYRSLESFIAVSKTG

| EC50 [µg/mL] | Binder |
| --- | --- |
| 0.24 | B1 |

target: dimeric mouse TIGIT-Fc (R&D Systems, 7267-TG) (mouse) (UniProt P86176); experiment: BLI (ForteBio), IgG on sensor, avid
Sequence (P86176 other isoform, or with tags, fused parts or gaps limits assumed, form in doubt): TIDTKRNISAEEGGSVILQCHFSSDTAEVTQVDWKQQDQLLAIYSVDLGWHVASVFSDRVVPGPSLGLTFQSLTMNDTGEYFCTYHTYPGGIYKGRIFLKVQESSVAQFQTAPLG

| Kd [nM] | Binder |
| --- | --- |
| 2.63 | B2 |
| 3.7 | B3 |
| 0.801 | B4 |
| 0.967 | B1 |
| 0.566 | B5 |
| 0.494 | B6 |
| 0.58 | B7 |
| 0.823 | B8 |
| 0.719 | B9 |

target: mouse TIGIT expressed on cells (mouse) (UniProt P86176); experiment: flow cytometry, titration on activated mouse splenic T cells

| EC50 [µg/mL] | Binder |
| --- | --- |
| 2.28 | B1 |

target: mouse TIGIT expressed on cells (mouse) (UniProt P86176); experiment: flow cytometry on HEK 293 cells expressing the target, MFI over parental HEK 293

| FOB (Fold Over Background) [fold] | Binder |
| --- | --- |
| 63 | B2 |
| 56 | B3 |
| 99 | B4 |
| 117 | B1 |
| 116 | B5 |
| 124 | B6 |
| 137 | B7 |
| 119 | B8 |
| 129 | B9 |

target: dimeric mouse TIGIT-Fc (R&D Systems, 7267-TG) (mouse) (UniProt P86176); experiment: BLI (ForteBio Octet RED384), IgG on AHQ sensor, 100 nM antigen, 1:1 model

| Kd [nM] | Binder |
| --- | --- |
| 10.5 | B10 |
| 8.82 | B11 |
| 1.1 | B1 |
